Assay results from patent US20190092852A1 (Genentech, published 2019).

Legend:
[1] = molecular target: T1, human IL-33 (R&D Systems, #3625-IL-010/CF) (human, UniProt O95760 112-270); assay: SPR Biacore T200, 37 C
T1 construct: also called hIL-33; huIL-33
T1 sequence (looked up): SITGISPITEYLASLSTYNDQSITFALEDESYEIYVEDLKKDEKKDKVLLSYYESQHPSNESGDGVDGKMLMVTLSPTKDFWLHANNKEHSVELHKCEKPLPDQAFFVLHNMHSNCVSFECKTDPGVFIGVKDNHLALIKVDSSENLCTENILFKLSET
Procedure, shortened: (§1)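 Antibodies captured via anti-Fc on CM5 chip; IL-33 injected at 3.7–100 nM (three-fold series), 4 min association, 10 min dissociation, 30 μl/min, ADA pH 7.4 buffer with 0.15 M NaCl, EDTA, Tween-20, at 25 °C or 37 °C. KD = koff/kon from 1:1 Langmuir fit; t1/2 = ln(2)/(60*koff).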

cyno IL-33 N-His = molecular target: T2, cyno IL-33 N-His (cynomolgus monkey); assay: SPR Biacore T200, 37 C
T2 chain: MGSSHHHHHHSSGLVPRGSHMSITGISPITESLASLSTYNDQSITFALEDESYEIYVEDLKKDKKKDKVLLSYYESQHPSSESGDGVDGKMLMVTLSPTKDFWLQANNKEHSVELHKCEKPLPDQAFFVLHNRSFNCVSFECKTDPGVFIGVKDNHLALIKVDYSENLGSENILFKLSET
Procedure, shortened: as §1

[2] = molecular target: T1, human IL-33 (R&D Systems, …); assay: cell-based or functional assay
[3] = molecular target: T1, human IL-33 (R&D Systems, …); assay: cell-based or functional assay; remark: listed apart in the source
[4] = molecular target: T1, human IL-33 (R&D Systems, …); assay: cell-based or functional assay; remark: listed apart in the source
biotinylated cyno IL-33 = molecular target: T3, biotinylated cyno IL-33 (cynomolgus monkey, UniProt A0A2K5W3I1 112-269, biotin-labeled with EZ-LINK NHS-PEG4-Biotin); assay: competitive ELISA, biotin-cyIL-33 to coated hST2-Fc
T3 construct: also called biotin-cyIL-33
T3 sequence: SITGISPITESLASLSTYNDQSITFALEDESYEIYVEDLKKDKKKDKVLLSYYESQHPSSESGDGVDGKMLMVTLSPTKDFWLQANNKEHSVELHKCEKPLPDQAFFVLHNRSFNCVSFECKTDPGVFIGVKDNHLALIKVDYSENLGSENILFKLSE
Procedure, shortened: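 Recombinant human ST2-Fc coated at 1 μg/ml; biotin-IL-33 (final 20 pM human, 45 pM cyno) premixed 1 h RT with serially diluted antibody (0–300 nM final), then bound to ST2-Fc 1 h RT. Streptavidin-polyHRP/TMB, A450; IC₅₀ from four-parameter fit, max blocking relative to IL-33-alone signal minus background.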

biotinylated human IL-33 = molecular target: T4, biotinylated human IL-33 (human, UniProt O95760 112-270, biotin-labeled with EZ-LINK NHS-PEG4-Biotin); assay: competitive ELISA, biotin-huIL-33 to coated hST2-Fc
T4 construct: also called biotin-huIL-33
T4 sequence (looked up): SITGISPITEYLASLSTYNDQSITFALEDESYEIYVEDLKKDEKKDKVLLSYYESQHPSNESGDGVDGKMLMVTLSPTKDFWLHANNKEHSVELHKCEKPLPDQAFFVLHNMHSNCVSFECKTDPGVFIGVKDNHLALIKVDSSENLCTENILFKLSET
Experimental: The ability of the anti-IL-33 antibody 10C12.38.H6.87Y.58I IgG4 and each anti-IL-33 antibody listed in Table 5 (RG1-RG20) to block either human IL-33 or cyno IL-33 binding to human ST2 receptor was tested in a competitive binding ELISA. Briefly, 1 μg/ml of recombinant human ST2-Fc chimera protein prepared in coating buffer (50 mM sodium carbonate, pH 9.6) was coated on a 384-well MAXISORP® plate (Nalgene Nunc International; Rochester, N.Y.) and incubated overnight at 4° C. On the next day, non-specific binding was blocked with PBS containing 0.5% (w/v) solution of bovine serum albumin (BSA). Fixed concentrations of biotinylated human or cyno IL-33 prepared in assay buffer (25 mM PBS, pH 7.2, 0.1% BSA, 0.05% TWEEN®-20) were mixed with an equal volume of serially-diluted anti-IL-33 antibodies or assay buffer alone and incubated for 1 h at room temperature. The final assay concentrations of biotinylated human IL-33 or cyno IL-33 were 20 pM and 45 pM, respectively, and the final assay concentration of each antibody ranged from 0-300 nM. The pre-mixed solutions were added to the ST2-Fc coated plate and incubated for 1 h at room temperature. The binding of biotinylated IL-33 to coated ST2-Fc was detected by the sequential addition of Streptavidin Poly-HRP80 (Fitzgerald; Buckinghamshire, UK) and 3,3′,5,5′-tetramethyl benzidine (TMB) Microwell Peroxidase Substrate System (KPL; Gaithersburg, Md.). The absorbance (450 nm) was recorded using a […] ASCENT® plate reader (Thermo Scientific; Rockford, Ill.). The binding activity (%) of biotin-IL-33 to ST2 in the presence of anti-IL-33 was plotted as a function of antibody concentration. The data generated were fitted to a four-parameter equation to determine IC₅₀ values for each antibody (FIGS. 25A and 25B) using Prism software (Graphpad Software; La Jolla, Calif.). The maximum blocking (%) of each antibody was calculated as the ratio of the reduction in signal measured in the presence of antibody relative to the difference between the signal with IL-33 alone and background measurements.

B1: 10C12.38.H6.87Y.58I IgG4 (antibody, V domains shown)
VH: EVQLVESGGGLVQPGGSLRLSCAASGFTFSSFSMSWVRQAPGKGLEWVATISGGKTFTDYVDSVKGRFTISRDDSKNTLYLQMNSLRAEDTAVYYCTRANYGNWFFEVWGQGTLVTVSS
VL: EIVLTQSPATLSLSPGERATLSCRASESVAKYGLSLLNWFQQKPGQPPRLLIFAASNRGSGIPARFSGSGSGTDFTLTISSLEPEDFAVYYCQQSKEVPFTFGQGTKVEIKR
notes: also called anti-IL33 10C12.38.H6.87Y.58I IgG4
Kd [1]: 0.0889 nM | koff [1]: 0.000547 s⁻¹ | kon [1]: 6.16e+06 M⁻¹ s⁻¹ | t1/2 [1]: 21 min | Kd (cyno IL-33 N-His): 0.476 nM | koff (cyno IL-33 N-His): 0.000804 s⁻¹ | kon (cyno IL-33 N-His): 1.69e+06 M⁻¹ s⁻¹ | t1/2 (cyno IL-33 N-His): 14 min | IC50; IFN-gamma ELISA, primary human NK cells, 260 pM hIL-33 + IL-12 [2]: 3.3e-11 M | Ph-p38 MFI at 0.4 nM Ab (500 pM human IL-33, primary basophils) [3]: 34 MFI | Ph-p38 MFI at 2 nM Ab (500 pM human IL-33, primary basophils) [4]: 23 MFI | IC50 (biotinylated cyno IL-33): 0.43 nM | Maximum Blocking (biotinylated cyno IL-33): 87% | IC50 (biotinylated human IL-33): 0.021 nM | Maximum Blocking (biotinylated human IL-33): 92%

B2: H4H9659P (antibody, IgG4, V domains shown)
VH: QVQLVQSGAEVKKPGASVKVSCKASGYTFNSYGISWVRQAPGQGLEWMGWISSHNGNSHYVQKFQGRVSMTTDTSTSTAYMELRSLRSDDTAVYYCARHSYTTSWYGGFDYWGQGTLVTVSS
VL: DIQMTQSPSSVSASVGDRVTITCRASQGFSSWLAWYQQKPGKAPQLLIYAASSLQSGVPSRFSGSGSGSDFTLTISSLQPEDFATYYCQQANSFPLTFGGGTKVEIK
notes: also called RG7
Kd [1]: 0.462 nM | koff [1]: 0.000498 s⁻¹ | kon [1]: 1.08e+06 M⁻¹ s⁻¹ | t1/2 [1]: 23 min | Kd (cyno IL-33 N-His): 4.13 nM | koff (cyno IL-33 N-His): 0.00114 s⁻¹ | kon (cyno IL-33 N-His): 277000 M⁻¹ s⁻¹ | t1/2 (cyno IL-33 N-His): 10 min | IC50; IFN-gamma ELISA, primary human NK cells, 260 pM hIL-33 + IL-12 [2]: 5.1e-10 M | Ph-p38 MFI at 0.4 nM Ab (500 pM human IL-33, primary basophils) [3]: 119 MFI | Ph-p38 MFI at 2 nM Ab (500 pM human IL-33, primary basophils) [4]: 49 MFI | IC50 (biotinylated cyno IL-33): 47 nM | Maximum Blocking (biotinylated cyno IL-33): 42% | IC50 (biotinylated human IL-33): 0.23 nM | Maximum Blocking (biotinylated human IL-33): 88%
